Molecular target: SARS-CoV-2 spike protein (full length) (SARS-CoV-2) (UniProt P0DTC2)
Experiment: ELISA, GRP78-HRP on plate-bound spike protein

Chain of GRP78 (soluble / recombinant protein), P11021 19-654 (other; other documents disagree on this pair) (P11021 19-654 limits assumed): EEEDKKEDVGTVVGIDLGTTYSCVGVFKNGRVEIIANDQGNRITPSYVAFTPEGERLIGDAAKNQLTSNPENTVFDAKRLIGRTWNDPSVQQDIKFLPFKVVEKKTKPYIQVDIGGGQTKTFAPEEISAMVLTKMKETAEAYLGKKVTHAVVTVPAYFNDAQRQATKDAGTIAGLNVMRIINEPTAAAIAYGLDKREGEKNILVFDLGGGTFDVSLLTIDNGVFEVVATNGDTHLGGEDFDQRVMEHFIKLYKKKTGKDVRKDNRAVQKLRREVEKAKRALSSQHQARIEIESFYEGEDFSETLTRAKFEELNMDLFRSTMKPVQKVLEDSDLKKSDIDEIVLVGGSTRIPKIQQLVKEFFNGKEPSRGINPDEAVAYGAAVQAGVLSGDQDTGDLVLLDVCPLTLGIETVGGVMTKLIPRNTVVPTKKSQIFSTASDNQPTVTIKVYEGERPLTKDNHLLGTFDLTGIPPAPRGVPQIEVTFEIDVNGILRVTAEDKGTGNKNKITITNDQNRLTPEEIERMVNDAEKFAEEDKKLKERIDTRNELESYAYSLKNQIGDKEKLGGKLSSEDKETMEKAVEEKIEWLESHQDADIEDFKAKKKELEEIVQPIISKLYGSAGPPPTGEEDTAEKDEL

Substance: GRP78 (soluble / recombinant protein), P11021 19-654 (other; other documents disagree on this pair)
- Kd: 293 nM
